Laboratory results taken from patent US20250230251A1 (Bristol-Myers Squibb, published 2025).
Substitutions are numbered along the chain they refer to.

B1: P20 (antibody, human IgG1, kappa)
heavy: QVQLQQSGPGLVKPSETLSLTCTVSGGSINNYYWSWIRQPPGKGLEWIGYIFYSGTTNYNPSLKSRVTISVDTSKNQFSLKLSSVTAADTAVYYCARDVGIAARNSYYYVMDVWGQGTTVTVSSASTKGPSVFPLAPSSKSTSGGTAALGCLVKDYFPEPVTVSWNSGALTSGVHTFPAVLQSSGLYSLSSVVTVPSSSLGTQTYICNVNHKPSNTKVDKRVEPKSCDKTHTCPPCPAPEAEGAPSVFLFPPKPKDTLMISRTPEVTCVVVDVSHEDPEVKFNWYVDGVEVHNAKTKPREEQYNSTYRVVSVLTVLHQDWLNGKEYKCKVSNKALPAPIEKTISKAKGQPREPQVYTLPPSREEMTKNQVSLTCLVKGFYPSDIAVEWESNGQPENNYKTTPPVLDSDGSFFLYSKLTVDKSRWQQGNVFSCSVMHEALHNHYTQKSLSLSPG
light: AIQLTQSPSSLSASVGDRVTITCRASQGISSALAWYQQKPGKAPKFLIYDASSLESGVPSRFSGSGSGTDFTLTISSLQPEDFATYYCQQFNSYPITFGQGTRLEIKRTVAAPSVFIFPPSDEQLKSGTASVVCLLNNFYPREAKVQWKVDNALQSGNSQESVTEQDSKDSTYSLSSTLTLSKADYEKHKVYACEVTHQGLSSPVTKSFNRGEC
notes: Human IgG
B2: P20-V1 (antibody, human IgG1, kappa, V domains shown)
VH: QVQLQESGPGLVKPSETLSLTCTVSGGSINNYYWSWIRQPPGKGLEWIGYIFYSGTTNYNPSLKSRVTISVDTSKNQFSLKLSSVTAADTAVYYCARDVGIAARNSYYYVMDVWGQGTTVTVSS
VL: AIQLTQSPSSLSASVGDRVTITCRASQGISSALAWYQQKPGKAPKFLIYEASSLESGVPSRFSGSGSGTDFTLTISSLQPEDFATYYCQQFNSYPITFGQGTRLEIKR
notes: Variant of P20
B3: P21 (antibody, human IgG1, kappa, V domains shown)
VH: QVQLQQSGPGLVKPSETLSLTCTVSGGSISNYYWTWIRQPPGKGLEWIGYISDSGSTNYNPSLKSRVTISVDTSKNQFSLKLSSVTAADTAVYYCARETIVVRGFYFYVMDVWGQGTTVTVSS
VL: B2 VL with K39R, F46L, E50D, S53N, L54W, I96W, R103K, L104V
notes: Human IgG

Assays:
huIL-18Rβ-HisAvi [1] = biological target: T1, huIL-18Rβ-HisAvi (human, UniProt O95256 20-356, biotinylated in the Octet blocking assay); test: SPR T200, mAb on anti-hFc, 37C, pH 7.4
T1 construct: Soluble analyte in all SPR runs; captured on streptavidin sensors in the Octet assay; also called human IL-18Rβ; human IL-18Rβ-Avi-His
T1 sequence: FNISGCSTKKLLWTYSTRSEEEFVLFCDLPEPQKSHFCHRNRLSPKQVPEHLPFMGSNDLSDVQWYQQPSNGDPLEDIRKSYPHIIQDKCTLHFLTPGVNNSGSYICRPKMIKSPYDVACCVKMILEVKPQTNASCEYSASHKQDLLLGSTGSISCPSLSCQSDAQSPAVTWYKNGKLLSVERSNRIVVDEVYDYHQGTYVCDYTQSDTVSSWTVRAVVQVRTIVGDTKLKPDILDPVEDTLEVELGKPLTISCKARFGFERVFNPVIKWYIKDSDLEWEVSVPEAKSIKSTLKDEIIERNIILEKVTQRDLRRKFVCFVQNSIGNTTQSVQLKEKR

cyIL-18Rβ-HisAvi [2] = biological target: T2, cyIL-18Rβ-HisAvi (cynomolgus monkey); test: SPR T200, mAb on anti-hFc, 37C, pH 7.4
T2 construct: Soluble analyte in SPR; also called cyno IL-18Rβ; cynomolgus monkey IL-18Rβ
T2 chain: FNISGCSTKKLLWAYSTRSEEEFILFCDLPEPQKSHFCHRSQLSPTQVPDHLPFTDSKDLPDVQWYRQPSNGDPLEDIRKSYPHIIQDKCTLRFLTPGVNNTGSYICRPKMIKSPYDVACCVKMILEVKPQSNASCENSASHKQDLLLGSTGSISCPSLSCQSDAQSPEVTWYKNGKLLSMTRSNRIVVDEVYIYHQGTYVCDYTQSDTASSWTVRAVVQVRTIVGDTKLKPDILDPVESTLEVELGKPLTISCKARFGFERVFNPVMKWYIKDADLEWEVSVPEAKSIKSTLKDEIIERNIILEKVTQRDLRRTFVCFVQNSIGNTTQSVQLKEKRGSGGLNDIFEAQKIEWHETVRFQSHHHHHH

huIL-18Rβ-HisAvi [3] = biological target: T1, huIL-18Rβ-HisAvi; test: SPR T200, mAb on anti-hFc, 37C, pH 7.4; remark: listed apart in the source
huIL-18Rβ-HisAvi [4] = biological target: T1, huIL-18Rβ-HisAvi; test: SPR T200, pH 7.4; sample stored at pH 8, 4 w 4C
human IL-18Rβ on cells [5] = biological target: T3, human IL-18Rβ on cells (human, UniProt O95256 20-599); test: cell-based or functional assay
T3 sequence: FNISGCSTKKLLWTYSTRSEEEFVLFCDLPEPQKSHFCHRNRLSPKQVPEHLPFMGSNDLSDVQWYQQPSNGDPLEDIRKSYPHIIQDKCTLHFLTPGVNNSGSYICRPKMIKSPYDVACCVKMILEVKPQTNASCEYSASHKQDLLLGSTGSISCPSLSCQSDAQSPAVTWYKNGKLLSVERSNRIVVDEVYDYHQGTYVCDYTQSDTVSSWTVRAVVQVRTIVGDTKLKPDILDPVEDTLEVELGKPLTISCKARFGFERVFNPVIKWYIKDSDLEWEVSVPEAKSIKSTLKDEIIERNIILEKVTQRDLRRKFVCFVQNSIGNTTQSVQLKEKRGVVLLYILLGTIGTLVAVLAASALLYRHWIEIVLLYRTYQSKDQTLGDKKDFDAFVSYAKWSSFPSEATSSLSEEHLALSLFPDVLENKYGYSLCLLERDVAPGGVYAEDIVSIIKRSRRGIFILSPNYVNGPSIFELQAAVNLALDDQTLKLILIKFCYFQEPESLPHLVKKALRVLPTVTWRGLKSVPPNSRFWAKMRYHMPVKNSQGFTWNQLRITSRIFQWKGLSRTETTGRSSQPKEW

cyIL-18Rβ-HisAvi [6] = biological target: T2, cyIL-18Rβ-HisAvi; test: SPR T200, mAb on anti-hFc, 37C, pH 6
huIL-18Rβ-HisAvi [7] = biological target: T1, huIL-18Rβ-HisAvi; test: SPR T200, mAb on anti-hFc, 37C, pH 6
[8] = biological target: the molecule itself; test: clone self-interaction BLI, antibody on AHQ sensor against 1 µM of the same antibody
huIL-18Rβ-HisAvi [9] = biological target: T1, huIL-18Rβ-HisAvi; test: SPR T200, mAb on anti-hFc, 37C, pH 5
cyIL-18Rβ-HisAvi [10] = biological target: T2, cyIL-18Rβ-HisAvi; test: SPR T200, mAb on anti-hFc, 37C, pH 7.4
huIL-18Rβ-HisAvi [11] = biological target: T1, huIL-18Rβ-HisAvi; test: SPR T200, mAb on anti-hFc, 37C, pH 7.4; remark: listed apart in the source
human IL-18Rβ on cells [12] = biological target: T3, human IL-18Rβ on cells; test: cell-based or functional assay; remark: listed apart in the source
huIL-18Rβ-HisAvi [13] = biological target: T1, huIL-18Rβ-HisAvi; test: SPR T200, pH 7.4; sample stored at pH 8, T0
huIL-18Rβ-HisAvi [14] = biological target: T1, huIL-18Rβ-HisAvi; test: SPR T200, pH 5 against pH 7.4

Binder | Kd (cyIL-18Rβ-HisAvi [2]) | koff (cyIL-18Rβ-HisAvi [2]) | kon (cyIL-18Rβ-HisAvi [2]) | IC50, LPS+IL-12 dependent IFNg production, human whole blood (human IL-18Rβ on cells [5]) | Kd (cyIL-18Rβ-HisAvi [6]) | koff (cyIL-18Rβ-HisAvi [6]) | kon (cyIL-18Rβ-HisAvi [6]) | Average CSI-BLI ΔResponse [8] | Kd (cyIL-18Rβ-HisAvi [10]) | koff (cyIL-18Rβ-HisAvi [10]) | kon (cyIL-18Rβ-HisAvi [10]) | IC50, IL-18-induced IFNγ release, KG-1 cells (human IL-18Rβ on cells [12]) | KD ratio (KD pH 5/KD pH 7) (huIL-18Rβ-HisAvi [14]) | kd ratio (kd pH 5/kd pH 7) (huIL-18Rβ-HisAvi [14]) | Kd (huIL-18Rβ-HisAvi [3]) | koff (huIL-18Rβ-HisAvi [3]) | kon (huIL-18Rβ-HisAvi [3]) | Kd (huIL-18Rβ-HisAvi [7]) | koff (huIL-18Rβ-HisAvi [7]) | kon (huIL-18Rβ-HisAvi [7]) | further results
B1 | 1.4 nM | 0.00024 s⁻¹ | 180000 M⁻¹ s⁻¹ | 1.66 nM | 1.6 nM | 0.00028 s⁻¹ | 180000 M⁻¹ s⁻¹ | 0.02 nm | 1.4 nM | 0.00024 s⁻¹ | 180000 M⁻¹ s⁻¹ | 0.2 nM | 1.08 | 0.63 |  |  |  |  |  |  | apparent Kd (pooled screen) (huIL-18Rβ-HisAvi [1]): 1.8 nM; apparent koff (pooled screen) (huIL-18Rβ-HisAvi [1]): 0.00032 s⁻¹; apparent kon (pooled screen) (huIL-18Rβ-HisAvi [1]): 180000 M⁻¹ s⁻¹; apparent Kd (pooled screen) (huIL-18Rβ-HisAvi [3]): 0.51 nM; apparent koff (pooled screen) (huIL-18Rβ-HisAvi [3]): 0.00017 s⁻¹; apparent Kd (pooled screen) (huIL-18Rβ-HisAvi [4]): 1.5 nM; apparent koff (pooled screen) (huIL-18Rβ-HisAvi [4]): 0.00035 s⁻¹; apparent kon (pooled screen) (huIL-18Rβ-HisAvi [4]): 230000 M⁻¹ s⁻¹; apparent Kd (pooled screen) (huIL-18Rβ-HisAvi [7]): 0.43 nM; apparent koff (pooled screen) (huIL-18Rβ-HisAvi [7]): 0.00016 s⁻¹; apparent kon (pooled screen) (huIL-18Rβ-HisAvi [7]): 380000 M⁻¹ s⁻¹; apparent Kd (pooled screen) (huIL-18Rβ-HisAvi [9]): 2 nM; apparent koff (pooled screen) (huIL-18Rβ-HisAvi [9]): 0.00021 s⁻¹; apparent kon (pooled screen) (huIL-18Rβ-HisAvi [9]): 100000 M⁻¹ s⁻¹; apparent Kd (pooled screen) (huIL-18Rβ-HisAvi [11]): 0.51 nM; apparent koff (pooled screen) (huIL-18Rβ-HisAvi [11]): 0.00017 s⁻¹; apparent kon (pooled screen) (huIL-18Rβ-HisAvi [11]): 330000 M⁻¹ s⁻¹; apparent Kd (pooled screen) (huIL-18Rβ-HisAvi [13]): 1.6 nM; apparent koff (pooled screen) (huIL-18Rβ-HisAvi [13]): 0.00035 s⁻¹; apparent kon (pooled screen) (huIL-18Rβ-HisAvi [13]): 220000 M⁻¹ s⁻¹
B2 | 1.4 nM | 0.00028 s⁻¹ | 200000 M⁻¹ s⁻¹ |  | 1.7 nM | 0.00028 s⁻¹ | 160000 M⁻¹ s⁻¹ |  |  |  |  |  |  |  | 0.43 nM | 0.00015 s⁻¹ | 340000 M⁻¹ s⁻¹ | 0.45 nM | 0.00015 s⁻¹ | 340000 M⁻¹ s⁻¹ | 
B3 | 19 nM | 0.0029 s⁻¹ | 150000 M⁻¹ s⁻¹ | 1.34 nM | 11 nM | 0.002 s⁻¹ | 180000 M⁻¹ s⁻¹ | -0.03 nm | 19 nM | 0.0029 s⁻¹ | 150000 M⁻¹ s⁻¹ | 0.7 nM | 1.09 | 0.79 | 1.8 nM | 0.00043 s⁻¹ | 240000 M⁻¹ s⁻¹ | 0.65 nM | 0.00031 s⁻¹ | 480000 M⁻¹ s⁻¹ | Kd (huIL-18Rβ-HisAvi [1]): 2.3 nM; koff (huIL-18Rβ-HisAvi [1]): 0.0005 s⁻¹; kon (huIL-18Rβ-HisAvi [1]): 220000 M⁻¹ s⁻¹; Kd (huIL-18Rβ-HisAvi [4]): 1.3 nM; koff (huIL-18Rβ-HisAvi [4]): 0.00034 s⁻¹; kon (huIL-18Rβ-HisAvi [4]): 270000 M⁻¹ s⁻¹; Kd (huIL-18Rβ-HisAvi [9]): 2.5 nM; koff (huIL-18Rβ-HisAvi [9]): 0.0004 s⁻¹; kon (huIL-18Rβ-HisAvi [9]): 160000 M⁻¹ s⁻¹; Kd (huIL-18Rβ-HisAvi [11]): 1.8 nM; koff (huIL-18Rβ-HisAvi [11]): 0.00043 s⁻¹; kon (huIL-18Rβ-HisAvi [11]): 240000 M⁻¹ s⁻¹; Kd (huIL-18Rβ-HisAvi [13]): 1.5 nM; koff (huIL-18Rβ-HisAvi [13]): 0.00037 s⁻¹; kon (huIL-18Rβ-HisAvi [13]): 250000 M⁻¹ s⁻¹
